From patent US20110311550A1

Assays:
Experiment in all cases: ELISA, lectin-captured E1E2 lysate, Ab 1 ug/ml
[1] = biological target: E1E2 complex (H77) with E1 mutation A269G (HCV genotype 1a, isolate H77) (UniProt P27958)
[2] = biological target: E1E2 complex (H77) with E1 mutation A274G (HCV genotype 1a, isolate H77) (UniProt P27958)
[3] = biological target: E1E2 complex (H77) with E1 mutation D263A (HCV genotype 1a, isolate H77) (UniProt P27958)
[4] = biological target: E1E2 complex (H77) with E1 mutation D321A (HCV genotype 1a, isolate H77) (UniProt P27958)
[5] = biological target: E1E2 complex (H77) with E1 mutation G278A (HCV genotype 1a, isolate H77) (UniProt P27958)
[6] = biological target: E1E2 complex (H77) with E1 mutation H298A (HCV genotype 1a, isolate H77) (UniProt P27958)
[7] = biological target: E1E2 complex (H77) with E1 mutation M318A (HCV genotype 1a, isolate H77) (UniProt P27958)
[8] = biological target: E1E2 complex (H77) with E1 mutation M323A (HCV genotype 1a, isolate H77) (UniProt P27958)
[9] = biological target: E1E2 complex (H77) with E1 mutation N196A (HCV genotype 1a, isolate H77) (UniProt P27958)
[10] = biological target: E1E2 complex (H77) with E1 mutation N196A/N209A (HCV genotype 1a, isolate H77) (UniProt P27958)
[11] = biological target: E1E2 complex (H77) with E1 mutation N234A (HCV genotype 1a, isolate H77) (UniProt P27958)
[12] = biological target: E1E2 complex (H77) with E1 mutation N325A (HCV genotype 1a, isolate H77) (UniProt P27958)
[13] = biological target: E1E2 complex (H77) with E1 mutation P224A (HCV genotype 1a, isolate H77) (UniProt P27958)
[14] = biological target: E1E2 complex (H77) with E1 mutation P244A (HCV genotype 1a, isolate H77) (UniProt P27958)
[15] = biological target: E1E2 complex (H77) with E1 mutation Q193A (HCV genotype 1a, isolate H77) (UniProt P27958)
[16] = biological target: E1E2 complex (H77) with E1 mutation Q302A (HCV genotype 1a, isolate H77) (UniProt P27958)
[17] = biological target: E1E2 complex (H77) with E1 mutation S198A (HCV genotype 1a, isolate H77) (UniProt P27958)
[18] = biological target: E1E2 complex (H77) with E1 mutation S236A (HCV genotype 1a, isolate H77) (UniProt P27958)
[19] = biological target: E1E2 complex (H77) with E1 mutation S273A (HCV genotype 1a, isolate H77) (UniProt P27958)
[20] = biological target: E1E2 complex (H77) with E1 mutation T314A (HCV genotype 1a, isolate H77) (UniProt P27958)
[21] = biological target: E1E2 complex (H77) with E1 mutation V194A (HCV genotype 1a, isolate H77) (UniProt P27958)
[22] = biological target: E1E2 complex (H77) with E1 mutation W239A (HCV genotype 1a, isolate H77) (UniProt P27958)
[23] = biological target: E1E2 complex (H77) with E2 mutation F442A (HCV genotype 1a, isolate H77) (UniProt P27958)
[24] = biological target: E1E2 complex (H77) with E2 mutation F447A (HCV genotype 1a, isolate H77) (UniProt P27958)
[25] = biological target: E1E2 complex (H77) with E2 mutation G634A (HCV genotype 1a, isolate H77) (UniProt P27958)
[26] = biological target: E1E2 complex (H77) with E2 mutation H638A (HCV genotype 1a, isolate H77) (UniProt P27958)
[27] = biological target: E1E2 complex (H77) with E2 mutation N448A (HCV genotype 1a, isolate H77) (UniProt P27958)
[28] = biological target: E1E2 complex (H77) with E2 mutation N623A (HCV genotype 1a, isolate H77) (UniProt P27958)
[29] = biological target: E1E2 complex (H77) with E2 mutation P619A (HCV genotype 1a, isolate H77) (UniProt P27958)

## mouse anti-E1 MAb A4 (antibody)
[1]
  Binding relative to wt (%): 47%
[2]
  Binding relative to wt (%): 53%
[3]
  Binding relative to wt (%): 96%
[4]
  Binding relative to wt (%): 91%
[5]
  Binding relative to wt (%): 58%
[6]
  Binding relative to wt (%): 164%
[7]
  Binding relative to wt (%): 97%
[8]
  Binding relative to wt (%): 69%
[9]
  Binding relative to wt (%): 45%
[10]
  Binding relative to wt (%): 51%
[11]
  Binding relative to wt (%): 105%
[12]
  Binding relative to wt (%): 83%
[13]
  Binding relative to wt (%): 99%
[14]
  Binding relative to wt (%): 85%
[15]
  Binding relative to wt (%): 81%
[16]
  Binding relative to wt (%): 215%
[17]
  Binding relative to wt (%): 61%
[18]
  Binding relative to wt (%): 88%
[19]
  Binding relative to wt (%): 38%
[20]
  Binding relative to wt (%): 99%
[21]
  Binding relative to wt (%): 160%
[22]
  Binding relative to wt (%): 103%
[23]
  Binding relative to wt (%): 90%
[24]
  Binding relative to wt (%): 98%
[25]
  Binding relative to wt (%): 112%
[26]
  Binding relative to wt (%): 104%
[27]
  Binding relative to wt (%): 97%
[28]
  Binding relative to wt (%): 116%
[29]
  Binding relative to wt (%): 108%
